# From article PMC7261172, “Peptides containing the PCNA interacting motif APIM bind to the β-clamp and inhibit bacterial growth and mutagenesis” (Nucleic Acids Research, 2020)
# B1: Octamer APIM peptide RWLVK (Ac-MDRWLVKW) (peptide)
# peptide: Ac-MDRWLVKW-NH2
# modifications: also: TFA salt
# notes: APIM motif RWLVK without the cell penetrating part; also called octamer peptide containing RWLVK; source: synthetic peptide; bought: Innovagen, Sweden
# B2: Cell penetrating APIM-peptide RFSLK (Ac-MD-RFSLK-WKKKRKI-RRRRRRRRRRR) (peptide)
# peptide: Ac-MDRFSLKWKKKRKIRRRRRRRRRRR-NH2
# modifications: also: TFA salt
# notes: APIM motif RFSLK, linker WKKKRKI, cell penetrating R11; TFA salt, >90% pure; also called RFSLK-peptide; source: synthetic peptide; bought: Innovagen, Sweden
# B3: Pol III β-clamp binding peptide (Ac-EQVELEFD) (peptide)
# peptide: Ac-EQVELEFD-NH2
# modifications: also: TFA salt
# notes: also called Pol III peptide; source: synthetic peptide; bought: Innovagen, Sweden
# B4: Cell penetrating APIM-peptide RWLVK (Ac-MD-RWLVK-WKKKRKI-RRRRRRRRRRR) (peptide)
# peptide: Ac-MDRWLVKWKKKRKIRRRRRRRRRRR-NH2
# modifications: also: TFA salt
# notes: APIM motif RWLVK, linker WKKKRKI, cell penetrating R11; TFA salt, >90% pure; also called RWLVK-peptide; cell penetrating RWLVK-peptide; source: synthetic peptide; bought: Innovagen, Sweden
# B5: Cell penetrating peptide with mutated APIM RALVK (Ac-MD-RALVK-WKKKRKI-RRRRRRRRRRR) (peptide)
# peptide: Ac-MDRALVKWKKKRKIRRRRRRRRRRR-NH2
# modifications: also: TFA salt
# notes: mutated APIM RALVK, linker WKKKRKI, cell penetrating R11; TFA salt, >90% pure; also called RALVK-peptide; source: synthetic peptide; bought: Innovagen, Sweden
# Tests used:
# Conditions in all cases: both partners purified
# [1] = molecular target: T1, E. coli β-clamp, wild type, His-tagged (E. coli, UniProt P0A988 1-366); assay: NMR titration; 1D 1H NMR of the peptide with sub-stoichiometric β-clamp (100 or 50 μM peptide added 5 or 20 μM β-clamp); line broadening or loss of signal read; 298 K, 20 mM NaH2PO4, 100 mM NaCl, pH 7.4
# T1 construct: β-clamp (β subunit of DNA polymerase III), product of the dnaN gene, E. coli; no cleavage is described; also called WT β-clamp; DNA sliding clamp; source: for NMR HisTrap FF and Superdex 200 SEC
# [2] = molecular target: T2, E. coli β-clamp H148K, His-tagged (E. coli, UniProt P0A988 1-366, H148K); assay: SPR; WT or mutant β-clamp immobilised by amine coupling on CM5 (about 2000 RU); octamer peptides at 4-128 μM, single-cycle; 25°C, 30 μl/min; PBS P+ (20 mM phosphate pH 7.4, 3 mM KCl, 137 mM NaCl, 0.05% P20); sensorgrams normalised to the immobilised level
# T2 construct: β-clamp, product of the dnaN gene, E. coli, with H148K; Made by site-directed mutagenesis of the plasmid of m1
# [3] = molecular target: T3, E. coli β-clamp V151A, His-tagged (E. coli, UniProt P0A988 1-366, V151A); assay: as above
# T3 construct: β-clamp, product of the dnaN gene, E. coli, with V151A; Made by site-directed mutagenesis of the plasmid of m1
# [4] = molecular target: T4, E. coli β-clamp P242D, His-tagged (E. coli, UniProt P0A988 1-366, P242D); assay: as above
# T4 construct: β-clamp, product of the dnaN gene, E. coli, with P242D; Made by site-directed mutagenesis of the plasmid of m1
# [5] = molecular target: T5, E. coli β-clamp M362D, His-tagged (E. coli, UniProt P0A988 1-366, M362D); assay: as above
# T5 construct: β-clamp, product of the dnaN gene, E. coli, with M362D; Made by site-directed mutagenesis of the plasmid of m1
# [6] = molecular target: T6, E. coli β-clamp P363D, His-tagged (E. coli, UniProt P0A988 1-366, P363D); assay: as above
# T6 construct: β-clamp, product of the dnaN gene, E. coli, with P363D; Made by site-directed mutagenesis of the plasmid of m1
# [7] = molecular target: T7, E. coli β-clamp labelled with RED-maleimide dye (MST) (E. coli, UniProt P0A988 1-366, RED-maleimide fluorescent dye (RED-Maleimide Labelling Kit, NanoTemper); site not stated); assay: MST; β-clamp labelled with RED-maleimide (3 nM stock, diluted 1:1 with ligand); peptides in 16 1:1 dilutions from 500 μM to 15 nM; 50 mM Tris-HCl pH 7.5, 150 mM NaCl, 10 mM MgCl2, 2% fetal bovine serum; Monolith NT.115; change of fluorescence analysed
# T7 construct: β-clamp (β subunit of DNA polymerase III), product of the dnaN gene, E. coli; it may or may not be the same His-tagged pET-16b construct as m1; also called fluorescent labeled β-clamp; Purified E.coli β-clamp; source: labelled with the RED-Maleimide Labelling Kit
Binder,binding result [1],Kd [7],also measured
B1,binds,–,binding result [2]: binds; binding result [3]: binds; binding result [4]: binds; binding result [5]: binds; binding result [6]: binds
B2,–,< 50 µM,–
B3,binds,–,–
B4,–,< 50 µM,–
B5,–,> 750 µM,–
